The source of these data is patent publication US12319742 (SHATTUCK LABS, dated 2025).

The target of assay [1] is T1, biotinylated recombinant human FcRn-His tagged protein (Acro #FCM-H82W7) (human, UniProt P55899 24-297; P61769 21-119, biotinylated).
T1 construct: also called hFcRn; neonatal Fc receptor
The assay can be described thus: BLI/Octet; biotinylated human FcRn-His on streptavidin biosensor; pH 6.0. Here is the method: Figure 5D: FIG. 5D. FcRn binding kinetics by anti-TNFRSF25 antibodies. BLI assay was performed using the Octet Red 96e instrument. Streptavidin biosensors were loaded with biotinylated recombinant human(h) FcRn-His tagged protein (Acro #FCM-H82W7) as the ligand. During the association phase, biosensors were incubated with anti-DR3 candidate antibodies at various concentrations for 600 seconds, followed by a 600-second dissociation phase.
To detect binding of certain whole antibodies to the neonatal Fc receptor (FcRn) at neutral and acidic pH conditions, streptavidin biosensors were loaded with biotinylated recombinant human FcRn-His tagged protein (Acro #FCM-H82W7) as the ligand. During the association phase, biosensors were incubated with anti-TNFRSF25 antibodies at various concentrations for 600 seconds, followed by a 600 second dissociation phase.
(BLI is a label-free optical method that tracks binding on a fibre tip over time.)

Assay [2] concerns the target T2, TNFRSF25 on lymphocytes in human PBMCs (human, UniProt Q93038 25-417).
T2 construct: whole, on cells; also called TNFRSF25 on CD4+ and CD8+ T cells and NK cells
T2 sequence (looked up): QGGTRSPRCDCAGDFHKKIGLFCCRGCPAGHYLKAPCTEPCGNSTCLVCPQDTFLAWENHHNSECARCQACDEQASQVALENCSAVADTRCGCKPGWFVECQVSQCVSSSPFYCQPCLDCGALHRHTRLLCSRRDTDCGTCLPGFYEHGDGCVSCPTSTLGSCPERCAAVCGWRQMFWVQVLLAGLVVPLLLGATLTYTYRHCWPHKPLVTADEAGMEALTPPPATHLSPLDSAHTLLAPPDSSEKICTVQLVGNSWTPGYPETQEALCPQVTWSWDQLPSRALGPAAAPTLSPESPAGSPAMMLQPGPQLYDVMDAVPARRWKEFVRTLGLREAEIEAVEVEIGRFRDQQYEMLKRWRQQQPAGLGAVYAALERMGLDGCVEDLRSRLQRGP
The assay is described as follows: flow cytometry MFI on NK cells of human PBMCs, no stimulation, APC anti-human Fc.

In another assay the target is T3, GITR.
T3 construct: member of group m24; also called GITR overexpressed in engineered mammalian cells
T3 chain: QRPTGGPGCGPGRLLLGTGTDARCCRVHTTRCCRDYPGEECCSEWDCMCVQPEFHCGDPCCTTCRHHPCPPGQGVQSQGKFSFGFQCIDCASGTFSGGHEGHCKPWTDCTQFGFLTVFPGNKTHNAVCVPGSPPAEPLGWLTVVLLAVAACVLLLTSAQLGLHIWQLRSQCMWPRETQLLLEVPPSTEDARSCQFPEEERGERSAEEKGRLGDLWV
The assay can be described thus: flow cytometry on engineered mammalian cells overexpressing GITR, APC anti-human Fc. On the technique in general: A flow cytometer gives signals particle by particle.

Another assay addresses T4, LTbR.
T4 construct: member of group m24; also called LTbR overexpressed in engineered mammalian cells
The assay is described as follows: flow cytometry on engineered mammalian cells overexpressing LTbR, APC anti-human Fc.

Assay [3] concerns the target T2, TNFRSF25 on lymphocytes in human PBMCs. The assay can be described thus: flow cytometry MFI on CD4+ T cells of human PBMCs, no stimulation, APC anti-human Fc.
Assay [4] has as its target T5, biotinylated recombinant human TNFRSF25-His tagged (Acro #TN5-H52H3) (human, UniProt Q93038 25-199, biotinylated).
T5 construct: treated as the same protein; also called recombinant biotin-conjugated human TNFRSF25 protein; DR3
T5 sequence (looked up): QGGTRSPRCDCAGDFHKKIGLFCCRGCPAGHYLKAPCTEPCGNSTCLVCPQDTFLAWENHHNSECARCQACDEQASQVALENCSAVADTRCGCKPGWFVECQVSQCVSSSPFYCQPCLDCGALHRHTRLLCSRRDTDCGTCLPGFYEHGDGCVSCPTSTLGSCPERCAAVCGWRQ
The assay is described as follows: SPR (Biacore 8K); biotinylated TNFRSF25-His on streptavidin chip SA, SL-061 flowed; 1:1 binding. Here is the method:
(FIG. 5A) BLI assay was performed using the Octet Red 96e instrument. Streptavidin biosensors were loaded with biotinylated recombinant human TNFRSF25-His tagged (Acro #TN5-H52H3) as the ligand. […] (FIG. 5B) SPR was performed on a Biacore 8K instrument.
(SPR reads the build-up and loss of mass on a sensor chip optically.)

For assay [5], the target named is T2, TNFRSF25 on lymphocytes in human PBMCs. The assay can be described thus: flow cytometry MFI on NK cells of human PBMCs, IL12+IL18 stimulation 24 h, APC anti-human Fc. Here is the method: (§1) Human PBMCs were stimulated with either IL12+IL18 or anti-CD3/CD28 for 24 hours to assess binding of anti-TNFRSF25 to lymphocyte subsets.
(§2) Figure 9: FIG. 9. […] Figure 10: FIG. 10.

The target in assay [6] is T5, biotinylated recombinant human …. The assay is described as follows: MSD competition; TNFRSF25 on plate, antibody titrated, then recombinant TL1A (TL1A-rabbit Fc) as competitor. Here is the method:
Figure 6: FIG. 6. […] Human TNFRSF25 was precoated on MSD assay plates followed by incubating with various concentrations of anti-TNFRSF25 antibodies.

The target in assay [7] is T2, TNFRSF25 on lymphocytes in human PBMCs. The assay is described as follows: flow cytometry MFI on CD4+ T cells of human PBMCs, anti-CD3/CD28 stimulation 24 h, APC anti-human Fc. Here is the method: as §1, §2
For assay [8] the target is unchanged. The assay can be described thus: flow cytometry MFI on CD8+ T cells of human PBMCs (panel 1003_CD8+T), IL12+IL18 stimulation 24 h, APC anti-human Fc. Here is the method:
as §1, §2

Assay [9] shares this target. The assay can be described thus: flow cytometry MFI on CD8+ T cells of human PBMCs (panel 1003_CD8+T), anti-CD3/CD28 stimulation 24 h, APC anti-human Fc. Here is the method: as §1, §2

T1 sequence (P55899 24-297 limits assumed, chain 1 of 2): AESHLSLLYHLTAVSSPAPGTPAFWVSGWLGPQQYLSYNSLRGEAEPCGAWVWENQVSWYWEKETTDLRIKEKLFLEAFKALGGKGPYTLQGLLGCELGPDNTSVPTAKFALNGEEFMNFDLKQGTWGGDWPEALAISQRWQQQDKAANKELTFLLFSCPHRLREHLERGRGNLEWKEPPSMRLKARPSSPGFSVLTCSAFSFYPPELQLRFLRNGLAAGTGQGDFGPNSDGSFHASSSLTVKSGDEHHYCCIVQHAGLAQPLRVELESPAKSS
T1 sequence (P61769 21-119 limits assumed, chain 2 of 2): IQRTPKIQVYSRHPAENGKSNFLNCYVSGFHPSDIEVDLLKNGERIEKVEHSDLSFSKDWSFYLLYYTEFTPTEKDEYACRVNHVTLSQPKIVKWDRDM

B1: SL-061 (antibody, human IgG1, kappa)
heavy: QVQLQQSGPGLVKPSQTLSLTCAISGDSVSGYSAAWNWIRQSPSRGLEWLGRTYYRSKWYNDYAVSVKSRITINPDTSKNQFSLQLNSVTPEDTAVYYCARDYYGSESYYNRGYYYYGMDVWGQGTTVTVSSASTKGPSVFPLAPSSKSTSGGTAALGCLVKDYFPEPVTVSWNSGALTSGVHTFPAVLQSSGLYSLSSVVTVPSSSLGTQTYICNVNHKPSNTKVDKKVEPKSCDKTHTCPPCPAPEAAGAPSVFLFPPKPKDTLMISRTPEVTCVVVDVSHEDPEVKFNWYVDGVEVHNAKTKPREEQYNSTYRVVSVLTVLHQDWLNGKEYKCKVSNKALPAPIEKTISKAKGQPREPQVYTLPPSREEMTKNQVSLTCLVKGFYPSDIAVEWESNGQPENNYKTTPPVLDSDGSFFLYSKLTVDKSRWQQGNVFSCSVMHEALHNHYTQKSLSLSPGK
light: AIQLTQSPSSLSASVGDRVTITCRASPGISSALAWYQQKPGKAPKLLMYDESSQESGVPSRFSGSGSGTDFTLTISSLQPEDFATYYCQQFNDYPLTFGGGTKVEIKRTVAAPSVFIFPPSDEQLKSGTASVVCLLNNFYPREAKVQWKVDNALQSGNSQESVTEQDSKDSTYSLSSTLTLSKADYEKHKVYACEVTHQGLSSPVTKSFNRGEC
notes: Same variable regions as SL-033; IgG1 with L234A/L235A+G237A; also called clone 061; SL-061 (L234A/L235A+G237A)
In the case of B1, the Kd in assay [1] stood at 4.41 nM; in [4], 0.00136 nM. Besides, the koff in [1] is 0.00104 s⁻¹. For the same molecule, in assay [1], the kon came to 235000 M⁻¹ s⁻¹. The EC50 in assay [2] came to 0.078 nM; in assay [3] it was 0.035 nM; in assay [5], 0.065 nM; in assay [7] it was 0.059 nM; in assay [8], 0.043 nM; in [9], 0.059 nM. Also, the binding result with GITR and in the assay with LTbR was “no binding (tested: about 20 nM)” each time. For the same molecule, in [6], the half-inhibitory concentration (IC50) was determined as 0.056 nM.

By Kd is commonly meant a measure of binding affinity in units of concentration. The term koff denotes a measure of how fast the partners let go of each other. Usually kon stands for the second-order rate constant of association. As usually defined, the EC50 is the concentration at which the effect is half-maximal. A high value points to a need for much substance. For orientation: IC50 means the point on the concentration scale where inhibition reaches its midpoint.
